# Measured values reported in patent US20200368125A1, “FAST-ACTING BIOCIDAL CLEANSING COMPOSITION” (Conopco, Inc., d/b/a UNILEVER, priority 2017, published 2020).
# Experiment: Zeta potential measured using Malvern Zetasizer
# Type: physicochemical
# Conditions: 2 ml sample; alkaline (KOH) aqueous medium
# Experimental: The Zeta Potential was measured using Malvern Zetasizer (2 ml sample). […] The error bar of ±0.2 mV […]. […] Usually Proteins tend to destabilise/degrade in the presence of strong alkalis like KOH but the stability of the complex, so prepared, was confirmed by ^1H NMR. […] Surface charge around protein changes with change with complex.
substance,measurement,value
sericin,Zeta Potential,−15±0.2 mV
